± gives the uncertainty stated by the source.
B1: Apoptosis-associated speck-like protein containing a CARD, residues 114 to 194; numbered along this chain, Q9ULZ3 (parent)
chain: FIDQHRAALIARVTNVEWLLDALYGKVLTDEQYQAVRAEPTNPSKMRKLFSFTPAWNWTCKDLLLQALRESQSYLVEDLER

Variants of: B1
Experiment: abundance fitness (aPCA) (normalised: wild type 0, dead -1); higher = more abundant; growth selection in yeast, the domain comes from the species named
Settings: Homo sapiens

Q: With FIDQHRAALIARVTNVEWLLDALYGKVLTDEQYQAVRAEPTNPSKMRKLFSFTPAWNWTCKDFLLQALRESQSYLVEDLER as the variant, how does the abundance fitness read?
A: Its abundance fitness is -0.381 ± 0.073.

Q: With FIDQHRAALIARVTNVEWLLDALYGKVLTDEQYQAVRAEPTNPSKMRKLFSFTPAWNWTCKDDLLQALRESQSYLVEDLER as the variant, how does the abundance fitness read?
A: Its abundance fitness is -0.777 ± 0.14.

Q: Which abundance fitness does the source give for FIDQHRAALIARVTNVEWLLDALYGKVLTDEQYQAVRAEPTNPSKMRKLFSFTPAWNWTCKDALLQALRESQSYLVEDLER here?
A: Its abundance fitness is -0.185 ± 0.053.

Q: With FIDQHRAALIARVTNVEWLLDALYGKVLTDEQYQAVRAEPTNPSKMRKLFSFTPAWNWTCKDHLLQALRESQSYLVEDLER as the variant, how does the abundance fitness read?
A: Its abundance fitness is -0.425 ± 0.16.

Q: Which abundance fitness does the source give for FIDQHRAALIARVTNVEWLLDALYGKVLTDEQYQAVRAEPTNPSKMRKLFSFTPAWNWTCKDGLLQALRESQSYLVEDLER here?
A: Its abundance fitness is -0.862 ± 0.082.

Q: With FIDQHRAALIARVTNVEWLLDALYGKVLTDEQYQAVRAEPTNPSKMRKLFSFTPAWNWTCKDCLLQALRESQSYLVEDLER as the variant, how does the abundance fitness read?
A: The abundance fitness was -0.44 ± 0.11.

Q: For FIDQHRAALIARVTNVEWLLDALYGKVLTDEQYQAVRAEPTNPSKMRKLFSFTPAWNWTCKDELLQALRESQSYLVEDLER, which abundance fitness is on record?
A: Its abundance fitness is -0.31 ± 0.1.

Q: With FIDQHRAALIARVTNVEWLLDALYGKVLTDEQYQAVRAEPTNPSKMRKLFSFTPAWNWWCKDLLLQALRESQSYLVEDLER as the variant, how does the abundance fitness read?
A: Its abundance fitness is 0.041 ± 0.057.

Q: Which abundance fitness does the source give for FIDQHRAALIARVTNVEWLLDALYGKVLTDEQYQAVRAEPTNPSKMRKLFSFTPAWNWPCKDLLLQALRESQSYLVEDLER here?
A: The abundance fitness was -0.44 ± 0.071.

Q: Which abundance fitness does the source give for FIDQHRAALIARVTNVEWLLDALYGKVLTDEQYQAVRAEPTNPSKMRKLFSFTPAWNWVCKDLLLQALRESQSYLVEDLER here?
A: Its abundance fitness is -0.128 ± 0.052.

Q: For FIDQHRAALIARVTNVEWLLDALYGKVLTDEQYQAVRAEPTNPSKMRKLFSFTPAWNWSCKDLLLQALRESQSYLVEDLER, which abundance fitness is on record?
A: Its abundance fitness is -0.04 ± 0.046.

Q: For FIDQHRAALIARVTNVEWLLDALYGKVLTDEQYQAVRAEPTNPSKMRKLFSFTPAWNWKCKDLLLQALRESQSYLVEDLER, which abundance fitness is on record?
A: Its abundance fitness is 0 ± 0.079.

Q: For FIDQHRAALIARVTNVEWLLDALYGKVLTDEQYQAVRAEPTNPSKMRKLFSFTPAWNWNCKDLLLQALRESQSYLVEDLER, which abundance fitness is on record?
A: Its abundance fitness is 0.018 ± 0.11.

Q: With FIDQHRAALIARVTNVEWLLDALYGKVLTDEQYQAVRAEPTNPSKMRKLFSFTPAWNWRCKDLLLQALRESQSYLVEDLER as the variant, how does the abundance fitness read?
A: Its abundance fitness is 0.111 ± 0.042.

Q: For FIDQHRAALIARVTNVEWLLDALYGKVLTDEQYQAVRAEPTNPSKMRKLFSFTPAWNWMCKDLLLQALRESQSYLVEDLER, which abundance fitness is on record?
A: Its abundance fitness is -0.084 ± 0.08.

Q: Which abundance fitness does the source give for FIDQHRAALIARVTNVEWLLDALYGKVLTDEQYQAVRAEPTNPSKMRKLFSFTPAWNWLCKDLLLQALRESQSYLVEDLER here?
A: Its abundance fitness is -0.149 ± 0.053.

Q: With FIDQHRAALIARVTNVEWLLDALYGKVLTDEQYQAVRAEPTNPSKMRKLFSFTPAWNWYCKDLLLQALRESQSYLVEDLER as the variant, how does the abundance fitness read?
A: The abundance fitness was -0.102 ± 0.1.

Q: For FIDQHRAALIARVTNVEWLLDALYGKVLTDEQYQAVRAEPTNPSKMRKLFSFTPAWNWTCCDLLLQALRESQSYLVEDLER, which abundance fitness is on record?
A: Its abundance fitness is -0.379 ± 0.089.

Q: For FIDQHRAALIARVTNVEWLLDALYGKVLTDEQYQAVRAEPTNPSKMRKLFSFTPAWNWTCPDLLLQALRESQSYLVEDLER, which abundance fitness is on record?
A: Its abundance fitness is -0.806 ± 0.12.

Q: For FIDQHRAALIARVTNVEWLLDALYGKVLTDEQYQAVRAEPTNPSKMRKLFSFTPAWNWTCQDLLLQALRESQSYLVEDLER, which abundance fitness is on record?
A: Its abundance fitness is -0.618 ± 0.12.

Q: Which abundance fitness does the source give for FIDQHRAALIARVTNVEWLLDALYGKVLTDEQYQAVRAEPTNPSKMRKLFSFTPAWNWTCMDLLLQALRESQSYLVEDLER here?
A: Its abundance fitness is -0.388 ± 0.096.

Q: Which abundance fitness does the source give for FIDQHRAALIARVTNVEWLLDALYGKVLTDEQYQAVRAEPTNPSKMRKLFSFTPAWNWTCIDLLLQALRESQSYLVEDLER here?
A: The abundance fitness was -0.968 ± 0.23.

Q: For FIDQHRAALIARVTNVEWLLDALYGKVLTDEQYQAVRAEPTNPSKMRKLFSFTPAWNWTCFDLLLQALRESQSYLVEDLER, which abundance fitness is on record?
A: The abundance fitness was 0.22 ± 0.16.

Q: With FIDQHRAALIARVTNVEWLLDALYGKVLTDEQYQAVRAEPTNPSKMRKLFSFTPAWNWTCVDLLLQALRESQSYLVEDLER as the variant, how does the abundance fitness read?
A: The abundance fitness was -0.649 ± 0.072.

Q: With FIDQHRAALIARVTNVEWLLDALYGKVLTDEQYQAVRAEPTNPSKMRKLFSFTPAWNWTCWDLLLQALRESQSYLVEDLER as the variant, how does the abundance fitness read?
A: The abundance fitness was -0.003 ± 0.071.

Q: With FIDQHRAALIARVTNVEWLLDALYGKVLTDEQYQAVRAEPTNPSKMRKLFSFTPAWNWTCGDLLLQALRESQSYLVEDLER as the variant, how does the abundance fitness read?
A: Its abundance fitness is -0.601 ± 0.064.

Q: With FIDQHRAALIARVTNVEWLLDALYGKVLTDEQYQAVRAEPTNPSKMRKLFSFTPAWNWTCRDLLLQALRESQSYLVEDLER as the variant, how does the abundance fitness read?
A: The abundance fitness was -0.437 ± 0.058.

Q: Which abundance fitness does the source give for FIDQHRAALIARVTNVEWLLDALYGKVLTDEQYQAVRAEPTNPSKMRKLFSFTPAWNWTCADLLLQALRESQSYLVEDLER here?
A: The abundance fitness was -0.332 ± 0.057.

Q: With FIDQHRAALIARVTNVEWLLDALYGKVLTDEQYQAVRAEPTNPSKMRKLFSFTPAWNWTCHDLLLQALRESQSYLVEDLER as the variant, how does the abundance fitness read?
A: The abundance fitness was 0.028 ± 0.1.

Q: With FIDQHRAALIARVTNVEWLLDALYGKVLTDEQYQAVRAEPTNPSKMRKLFSFTPAWNWTCLDLLLQALRESQSYLVEDLER as the variant, how does the abundance fitness read?
A: Its abundance fitness is -0.901 ± 0.13.

Q: With FIDQHRAALIARVTNVEWLLDALYGKVLTDEQYQAVRAEPTNPSKMRKLFSFTPAWNWTCYDLLLQALRESQSYLVEDLER as the variant, how does the abundance fitness read?
A: The abundance fitness was 0.119 ± 0.13.

Q: Which abundance fitness does the source give for FIDQHRAALIARVTNVEWLLDALYGKVLTDEQYQAVRAEPTNPSKMRKLFSFTPAWNWTCEDLLLQALRESQSYLVEDLER here?
A: Its abundance fitness is -0.337 ± 0.089.

Q: For FIDQHRAALIARVTNVEWLLDALYGKVLTDEQYQAVRAEPTNPSKMRKLFSFTPAWNWTCDDLLLQALRESQSYLVEDLER, which abundance fitness is on record?
A: The abundance fitness was -0.534 ± 0.19.

Q: With FIDQHRAALIARVTNVEWLLDALYGKVLTDEQYQAVRAEPTNPSKMRKLFSFTPAWNWTCNDLLLQALRESQSYLVEDLER as the variant, how does the abundance fitness read?
A: Its abundance fitness is -0.52 ± 0.2.

Source: the Human Domainome abundance scans (Beltran et al. 2025)
